Patent US20230391828A1, “REGULATORS OF CELL DIVISION” (TECHNISCHE UNIVERSITÄT DRESDEN, priority 2020, published 2023)
Bridge positions count the residues as written; N and C are the ends. Square brackets hold non-standard residues; d marks the D form. Pra = C#CC[C@H](N)C(=O)O

Legend:
[1] = biological target: T1, c-IAP1 (Homo sapiens, UniProt Q13490); assay: Pull-down binding assay in HeLa K cell extract, c-IAP1; details: azide agarose beads, Western blot
T1 construct: endogenous in cells; host or cells: HeLa K cell extract
Protocol: (§1) HeLa K cell pellet was re-suspended in the extraction buffer (30 mM HEPES pH 7.5, 175 mM NaCl, 2.5 mM MgCl2, 0.25% NP40, 10% glycerol, 1 mM DTT supplied with complete protease inhibitor cocktail (Roche), PhosSTOP phosphatase inhibitors (Roche), 1 mM PMSF, 10 μM MG132) and incubated for 20 min on ice, followed by centrifugation to clear the lysate for 15 min at 4° C. 16,100 g. In the meantime, inhibitor molecules containing the propargyl-Gly-OH (Pra) chemical group were covalently attached to the azide agarose resin (Jena Bioscience) by Cu(I)-catalysed azide-alkyne cycloaddition reaction. Specifically, the inhibitor molecules were mixed with azide agarose resin in ratio 0.125 μmol inhibitor/20 μl agarose resin. The reaction was catalysed by 0.1 mM CuSO4, 0.5 mM THPTA (Sigma-Aldrich) and 5 mM Sodium ascorbate and was performed on the rotating wheel for 30 min at room temperature in the volume of 1 ml. Subsequently, the resin was washed five times with the extraction buffer. The inhibitor-agarose resin was added to 2 mg of HeLa K cell extract and incubated at 4° C. for 2 h. Afterwards, the resin was washed four times with the extraction buffer. Pull-down proteins were eluted by incubation with pre-warmed 1×LDS sample buffer for 10 min at room temperature followed by taking supernatant supplemented with 100 mM DTT and boiling for 10 min. […]

[2] = biological target: T2, BRCA1 (Homo sapiens, UniProt P38398); assay: Pull-down binding assay in HeLa K cell extract, BRCA1; details: azide agarose beads, Western blot
T2 construct: endogenous in cells; host or cells: HeLa K cell extract
Protocol: as §1

[3] = biological target: T3, c-CBL (Homo sapiens, UniProt P22681); assay: Pull-down binding assay in HeLa K cell extract, c-CBL; details: azide agarose beads, Western blot
T3 construct: endogenous in cells; host or cells: HeLa K cell extract
Protocol: as §1

[4] = biological target: T4, MDM2 (Homo sapiens, UniProt Q00987); assay: Pull-down binding assay in HeLa K cell extract, MDM2; details: azide agarose beads, Western blot
T4 construct: endogenous in cells; host or cells: HeLa K cell extract
Protocol: as §1

[5] = biological target: T5, APC/C (APC11) (Homo sapiens, UniProt Q9NYG5); assay: Pull-down binding assay in HeLa K cell extract, APC/C; details: Pra peptide clicked to azide agarose or magnetic beads, Western blot
T5 construct: endogenous in cells; host or cells: HeLa K cell extract
Protocol: (§2) For the protein transfer, the 0.45 μm Immobilon-FL PVDF membrane (Merck Millipore) was used. The membrane was activated in ethanol and then transferred to the Blotting buffer (50 mM SDS-MOPS, 50 mM Tris base, 0.1% SDS, 1 mM EDTA, 20% EtOH). The proteins were transferred using a wet transfer for 1.5 h at 400 mA. Subsequently, the membrane was incubated with the blocking solution, 10% milk in PBS-T (0.02% Tween-20 in PBS), for 1 h at room temperature. To detect proteins of the interest, the membrane was incubated with primary antibodies overnight at 4° C. Followed by washing the membrane 3 times 10 min with PBS-T and incubation with IRDye fluorescently labelled secondary antibodies for 1 h. Prior detection, the membrane was twice washed with PBS-T for 10 min and once with PBS for 10 min. The detection was done using the quantitative near-infrared scanning system Odyssey (LI-COR Biosciences).
HeLa K cell pellet was re-suspended in the extraction buffer (30 mM HEPES pH 7.5, 175 mM NaCl, 2.5 mM MgCl2, 0.25% NP40, 10% glycerol, 1 mM DTT) supplemented with 10 μM MG132 (VWR), 1 mM PMSF (Sigma-Aldrich), complete protease inhibitor cocktail (Roche) and PhosSTOP phosphatase inhibitors (Roche) and incubated for 20 min on ice, followed by centrifugation of cell debris for 15 min at 4° C. 16 100 g. In mean time, inhibitor molecules containing Propargyl (Pra) chemical group were covalently attached to the azide agarose or azide magnetic resin (Jena Bioscience) by Cu(I)-catalysed azide-alkyne cycloaddition reaction. Specifically, the inhibitor molecules were mixed with azide agarose resin in ratio 0.125 μmol inhibitor/25 μl agarose resin and azide magnetic resin in ratio 0.018 μmol inhibitor/20 μl magnetic resin. The reaction was catalysed by 1 mM CuSO4, 0.1 mM TBTA (Sigma-Aldrich) and 1 mM Sodium ascorbate and was performed on the rotating wheel for 30 min at room temperature in the volume of 1 ml. Subsequently, the resin was washed 5 times with the extraction buffer. The inhibitor-agarose resin was added to 1 mg of HeLa K cell extract and the inhibitor-magnetic resin was added to 0.5 mg of HeLa K cell extract followed by incubation at 4° C. for 2 h. Followed by washing the resin 5 times with the extraction buffer. Pull-down proteins were eluted by boiling for 15 min with 1×LDS sample buffer supplemented with 100 mM DTT (agarose resin) or by incubation with 1×LDS sample buffer for 10 min at room temperature followed by taking supernatant that was supplemented with 100 mM DTT and boiling it for 10 min. Samples were subjected to SDS PAGE and Western blot analysis.
as §1, with “ml.” for “ml. Subsequently, the resin was washed five times with the extraction buffer. The inhibitor-agarose resin was added to 2 mg of HeLa K cell extract and incubated at 4° C. for 2 h. Afterwards, the resin was washed four times with the extraction buffer. Pull-down proteins were eluted by incubation with pre-warmed 1×LDS sample buffer for 10 min at room temperature followed by taking supernatant supplemented with 100 mM DTT and boiling for 10 min.”

[6] = biological target: T6, TRAF2 (Homo sapiens, UniProt Q12933); assay: Pull-down binding assay in HeLa K cell extract, TRAF2; details: azide agarose beads, Western blot
T6 construct: endogenous in cells; host or cells: HeLa K cell extract
T6 sequence (Q12933 1-501): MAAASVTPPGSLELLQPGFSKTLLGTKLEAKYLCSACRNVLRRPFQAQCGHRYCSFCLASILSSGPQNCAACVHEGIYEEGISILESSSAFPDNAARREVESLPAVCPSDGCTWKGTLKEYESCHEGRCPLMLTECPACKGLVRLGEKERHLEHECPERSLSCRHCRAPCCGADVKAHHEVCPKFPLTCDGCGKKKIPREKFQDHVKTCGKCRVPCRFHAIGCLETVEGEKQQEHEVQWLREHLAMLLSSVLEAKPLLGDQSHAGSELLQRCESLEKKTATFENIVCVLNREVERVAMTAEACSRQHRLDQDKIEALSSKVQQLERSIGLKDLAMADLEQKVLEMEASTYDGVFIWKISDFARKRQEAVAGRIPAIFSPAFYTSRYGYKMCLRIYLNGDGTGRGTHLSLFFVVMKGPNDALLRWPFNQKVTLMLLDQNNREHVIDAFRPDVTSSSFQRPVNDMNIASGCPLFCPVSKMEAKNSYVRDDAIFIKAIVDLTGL
Protocol: as §1

[7] = biological target: T7, BMI-1 (Homo sapiens, UniProt P35226); assay: Pull-down binding assay in HeLa K cell extract, BMI-1; details: azide agarose beads, Western blot
T7 construct: endogenous in cells; host or cells: HeLa K cell extract
T7 sequence (P35226 1-326): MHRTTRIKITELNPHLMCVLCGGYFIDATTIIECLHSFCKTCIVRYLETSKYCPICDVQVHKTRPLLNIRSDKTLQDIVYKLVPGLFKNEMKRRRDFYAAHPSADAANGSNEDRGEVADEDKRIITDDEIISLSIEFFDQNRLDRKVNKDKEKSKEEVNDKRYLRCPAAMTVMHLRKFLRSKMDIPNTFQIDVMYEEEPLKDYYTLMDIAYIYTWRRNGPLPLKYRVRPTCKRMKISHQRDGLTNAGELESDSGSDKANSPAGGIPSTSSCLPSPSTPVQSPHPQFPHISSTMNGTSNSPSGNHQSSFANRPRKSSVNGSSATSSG
Protocol: as §1

[8] = biological target: T8, RBX1 (Homo sapiens, UniProt P62877); assay: Pull-down binding assay in HeLa K cell extract, RBX1; details: azide beads, Western blot
T8 construct: endogenous in cells; host or cells: HeLa K cell extract
Protocol: as §2
HeLa K cell pellet was re-suspended in the extraction buffer (30 mM HEPES pH 7.5, 175 mM NaCl, 2.5 mM MgCl2, 0.25% NP40, 10% glycerol, 1 mM DTT) supplemented with 10 μM MG132 (VWR), 1 mM PMSF (Sigma-Aldrich), complete protease inhibitor cocktail (Roche) and PhosSTOP phosphatase inhibitors (Roche) and incubated for 20 min on ice, followed by centrifugation of cell debris for 15 min at 4° C. 16 100 g. […]

T4 sequence (Q00987 whole entry): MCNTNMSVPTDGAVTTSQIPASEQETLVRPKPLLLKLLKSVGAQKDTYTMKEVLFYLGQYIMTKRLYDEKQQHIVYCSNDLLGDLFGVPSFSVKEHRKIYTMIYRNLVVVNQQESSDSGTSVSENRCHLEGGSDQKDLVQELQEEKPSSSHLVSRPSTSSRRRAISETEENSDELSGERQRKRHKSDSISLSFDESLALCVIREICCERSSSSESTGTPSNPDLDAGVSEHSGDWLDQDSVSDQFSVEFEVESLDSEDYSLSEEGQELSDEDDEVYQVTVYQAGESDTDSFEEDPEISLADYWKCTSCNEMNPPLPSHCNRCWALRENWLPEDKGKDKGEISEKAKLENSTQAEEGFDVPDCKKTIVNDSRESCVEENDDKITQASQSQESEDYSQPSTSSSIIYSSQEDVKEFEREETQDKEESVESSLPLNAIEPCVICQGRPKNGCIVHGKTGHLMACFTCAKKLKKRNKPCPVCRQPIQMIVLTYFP
T8 sequence (P62877 whole entry): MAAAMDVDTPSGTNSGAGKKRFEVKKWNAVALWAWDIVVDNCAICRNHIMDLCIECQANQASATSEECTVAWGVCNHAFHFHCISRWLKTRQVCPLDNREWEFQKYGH
T1 sequence (Q13490 whole entry): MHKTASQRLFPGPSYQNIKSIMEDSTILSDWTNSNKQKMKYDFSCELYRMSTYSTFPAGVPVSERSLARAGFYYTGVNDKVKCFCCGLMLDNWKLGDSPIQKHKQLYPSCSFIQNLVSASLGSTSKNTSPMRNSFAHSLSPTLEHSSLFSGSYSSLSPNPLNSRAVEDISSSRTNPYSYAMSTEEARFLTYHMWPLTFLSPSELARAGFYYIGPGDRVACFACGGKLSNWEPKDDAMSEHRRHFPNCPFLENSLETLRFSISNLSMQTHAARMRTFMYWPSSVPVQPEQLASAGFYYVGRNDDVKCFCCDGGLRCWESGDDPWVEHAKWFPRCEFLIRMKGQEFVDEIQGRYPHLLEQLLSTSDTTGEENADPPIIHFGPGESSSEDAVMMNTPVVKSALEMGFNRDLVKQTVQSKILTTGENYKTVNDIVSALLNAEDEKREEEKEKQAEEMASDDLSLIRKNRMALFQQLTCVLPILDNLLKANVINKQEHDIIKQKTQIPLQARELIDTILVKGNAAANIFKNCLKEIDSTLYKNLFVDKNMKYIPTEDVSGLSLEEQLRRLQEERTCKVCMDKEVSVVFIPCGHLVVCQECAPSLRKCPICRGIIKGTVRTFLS
T2 sequence (P38398 whole entry): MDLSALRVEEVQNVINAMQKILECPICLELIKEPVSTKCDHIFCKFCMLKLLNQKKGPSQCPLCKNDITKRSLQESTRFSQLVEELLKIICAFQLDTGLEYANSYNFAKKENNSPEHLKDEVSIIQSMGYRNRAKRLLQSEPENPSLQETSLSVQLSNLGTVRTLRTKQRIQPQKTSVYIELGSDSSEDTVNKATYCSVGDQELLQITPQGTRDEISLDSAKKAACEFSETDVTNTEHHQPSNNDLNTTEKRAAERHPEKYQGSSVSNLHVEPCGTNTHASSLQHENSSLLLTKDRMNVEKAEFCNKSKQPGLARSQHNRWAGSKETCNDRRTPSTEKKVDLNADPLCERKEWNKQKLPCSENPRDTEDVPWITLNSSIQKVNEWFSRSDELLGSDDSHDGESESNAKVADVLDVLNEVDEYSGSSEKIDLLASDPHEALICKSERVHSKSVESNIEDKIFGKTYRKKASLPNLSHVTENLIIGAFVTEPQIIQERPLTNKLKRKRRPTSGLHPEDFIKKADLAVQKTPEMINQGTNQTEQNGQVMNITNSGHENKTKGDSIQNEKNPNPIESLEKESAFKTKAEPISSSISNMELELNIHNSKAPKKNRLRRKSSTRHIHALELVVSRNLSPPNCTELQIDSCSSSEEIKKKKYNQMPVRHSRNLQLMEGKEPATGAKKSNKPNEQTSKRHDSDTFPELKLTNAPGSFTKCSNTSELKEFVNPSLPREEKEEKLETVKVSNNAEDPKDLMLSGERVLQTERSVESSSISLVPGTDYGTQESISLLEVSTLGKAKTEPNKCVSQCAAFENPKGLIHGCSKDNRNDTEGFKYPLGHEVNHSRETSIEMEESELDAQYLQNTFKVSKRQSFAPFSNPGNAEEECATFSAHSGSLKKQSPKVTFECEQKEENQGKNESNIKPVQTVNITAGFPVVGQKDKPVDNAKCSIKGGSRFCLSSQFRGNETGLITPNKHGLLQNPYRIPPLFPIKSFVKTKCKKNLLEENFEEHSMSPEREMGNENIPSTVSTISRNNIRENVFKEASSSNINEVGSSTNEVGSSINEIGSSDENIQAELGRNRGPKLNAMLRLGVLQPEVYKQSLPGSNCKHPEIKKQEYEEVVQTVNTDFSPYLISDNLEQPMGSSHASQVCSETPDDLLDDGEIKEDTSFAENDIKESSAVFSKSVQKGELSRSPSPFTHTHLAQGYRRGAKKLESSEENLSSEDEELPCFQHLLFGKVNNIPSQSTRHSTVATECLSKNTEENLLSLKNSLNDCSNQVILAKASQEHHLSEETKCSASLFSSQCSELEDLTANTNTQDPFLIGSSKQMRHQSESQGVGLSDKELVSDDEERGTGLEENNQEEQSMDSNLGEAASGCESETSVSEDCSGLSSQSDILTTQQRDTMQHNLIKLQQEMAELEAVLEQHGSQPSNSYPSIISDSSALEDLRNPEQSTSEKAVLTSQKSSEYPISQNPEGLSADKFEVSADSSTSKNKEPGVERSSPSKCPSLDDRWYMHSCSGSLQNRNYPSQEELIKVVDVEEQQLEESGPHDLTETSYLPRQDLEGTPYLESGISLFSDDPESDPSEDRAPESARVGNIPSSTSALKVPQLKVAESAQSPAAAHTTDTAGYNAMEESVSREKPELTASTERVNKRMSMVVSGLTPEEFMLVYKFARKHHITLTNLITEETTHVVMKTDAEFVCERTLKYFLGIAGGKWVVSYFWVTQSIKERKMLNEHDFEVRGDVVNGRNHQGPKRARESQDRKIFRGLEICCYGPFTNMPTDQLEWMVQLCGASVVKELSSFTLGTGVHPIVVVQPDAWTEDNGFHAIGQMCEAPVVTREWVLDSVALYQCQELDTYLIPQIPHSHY

Ac-cyclo(3,12)-PraRCHWGPRTFWCR-NH2 (Ac-[Pra]RCHWGPRTFWCR-NH2; disulfide 3-12; SMILES C#CC[C@H](NC(C)=O)C(=O)N[C@@H](CCCNC(=N)N)C(=O)N[C@H]1CSSC[C@@H](C(=O)N[C@@H](CCCNC(=N)N)C(N)=O)NC(=O)[C@H](Cc2c[nH]c3ccccc23)NC(=O)[C@H](Cc2ccccc2)NC(=O)[C@H]([C@@H](C)O)NC(=O)[C@H](CCCNC(=N)N)NC(=O)[C@@H]2CCCN2C(=O)CNC(=O)[C@H](Cc2c[nH]c3ccccc23)NC(=O)[C@H](Cc2c[nH]cn2)NC1=O) [G1-3Pra]
binds: binding to c-IAP1 (pull-down) [1] | binding to BRCA1 (pull-down) [2] | binding to c-CBL (pull-down) [3] | binding to MDM2 (pull-down) [4] | binding to the APC/C (pull-down) [5] | binding to TRAF2 (pull-down) [6] | binding to BMI-1 (pull-down) [7] | binding to RBX1 (pull-down) [8]
